Data published in paper PMC7958859, “Molecular and Pharmacological Characterization of the Interaction between Human Geranylgeranyltransferase Type I and Ras-Related Protein Rap1B” (International Journal of Molecular Sciences, 2021).

Target: human GGTase-I (LgBiT-GGTase-I-β-subunit with co-transfected untagged FTase α-subunit) (human, UniProt P53609-1 2-377; P49354-1 1-379)
Test: split reporter (BiFC, NanoBiT); living HEK293 cells stably expressing the human A2BAR, transient co-transfection (50 ng DNA/well of each LgBiT and SmBiT plasmid, 100 ng/well untagged FTase α, ΔCQLL 50–200 ng/well); NanoGlo live-cell substrate 24 h after transfection, luminescence at 25 °C every 30 s, maxima plotted as RLU; also after treatment with vehicle (DMSO), adenosine, NECA, BAY60-6583, CGS-21680, forskolin, …
Settings: partners not purified

B1: SmBiT-Rap1B ΔCQLL (domain or fragment)
chain: REYKLVVLGSGGVGKSALTVQFVQGIFVEKYDPTIEDSYRKQVEVDAQQCMLEILDTAGTEQFTAMRDLYMKNGQGFALVYSITAQSTFNDLQDLREQILRVKDTDDVPMILVGNKCDLEDERVVGKEQGQNLARQWNNCAFLESSAKSKINVNEIFYDLVRQINRKTPVPGKARKKSS
notes: human Rap1B lacking the C-terminal CAAX motif CQLL (from C181 to the end); the forward primer begins at codon 2, the reverse primer ends with Lys-Lys-Ser-Ser and a stop codon; Expression about 5-fold lower than SmBiT-Rap1B WT by Western blot; Glycine/serine linker and Ala-Ile-Ala between SmBiT and Rap1B; also called complete CAAX motif deletion mutant; source: HEK293 stably expressing the human …
fold lower luminescence than with Rap1B WT (50 ng DNA/well each): ~20 fold
fold lower luminescence than with Rap1B WT (ΔCQLL 200 ng DNA/well, WT 50 ng DNA/well): ~10 fold
